From patent publication US5472841, “Methods for identifying nucleic acid ligands of human neutrophil elastase” (NeXstar Pharmaceuticals, Inc.)
Changes are numbered by the printed parent chain.

Columns and labels:
[1] = target: T1, Human neutrophil elastase (Homo sapiens, UniProt P08246 P08246:30-267); test: filter; 3'-truncated; conditions: tags: Athens Research and Technology
Text: (§1) With the use of PCR primers specific for the 3' sequence of the 2'-NH₂ modified RNA ligand, the 3'-fixed regions for four different ligands (class I ligand 12, class II ligand 14, class III ligand 9 and class IV ligand 19) were eliminated.

[2] = target: T1, Human neutrophil elastase; test: filter; 6 mM KCl, 2 mM MgCl2, pH 7.0; conditions: tags: Athens Research and Technology
[3] = target: T1, Human neutrophil elastase; test: competition; competes with ligand 24; conditions: tags: Athens Research and Technology; G4 predicted
[4] = target: Basic fibroblast growth factor (bFGF) (UniProt P09038 P09038:143-288); test: filter; specificity control
Basic fibroblast growth factor (bFGF), sequence (P09038 143-288, one chain of several): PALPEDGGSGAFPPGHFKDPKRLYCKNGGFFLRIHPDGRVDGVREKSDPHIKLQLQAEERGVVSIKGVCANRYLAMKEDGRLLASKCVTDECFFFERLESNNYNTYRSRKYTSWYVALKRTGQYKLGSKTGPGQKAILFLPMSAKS

[5] = target: T1, Human neutrophil elastase; test: filter; better at pH 5, Kd rises about 3-fold over two pH units; ligand 17 legend cites SEQ ID NO:1, sequence taken from Example 7; conditions: tags: Athens Research and Technology; G4 predicted
Thrombin = Thrombin (UniProt P00734;P00734 P00734:328-363,P00734:364-622); test: filter; specificity control
[6] = target: T1, Human neutrophil elastase; test: filter; no KCl in binding buffer; conditions: tags: Athens Research and Technology; G4 predicted
[7] = target: T1, Human neutrophil elastase; test: filter; 3'-truncated; also FIG. 1; conditions: tags: Athens Research and Technology
Text: as §1

T1 sequence (P08246 30-267, one chain of several): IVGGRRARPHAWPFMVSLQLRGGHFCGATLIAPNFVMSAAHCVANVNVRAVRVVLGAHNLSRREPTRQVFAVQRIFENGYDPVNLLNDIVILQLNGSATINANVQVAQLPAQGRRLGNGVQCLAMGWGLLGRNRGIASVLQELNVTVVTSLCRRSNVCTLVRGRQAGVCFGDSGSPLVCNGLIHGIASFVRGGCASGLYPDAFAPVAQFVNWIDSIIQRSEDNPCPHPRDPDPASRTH

B1: ligand 9 3'-truncated (ssRNA)
RNA: GGGAGCUCAGAAUAAACGCUCAAGGAAUGAAUGUGAUGAACAGGUGUCGGGGUGGAUGGGUGG
modifications: 2'-NH2 all pyrimidines
- Kd [1]: 989 nM

B2: ligand 44 (class I) (ssRNA)
RNA: GGGAGCUCAGAAUAAACGCUCAAGAGUAGGCUUGACGCUGGGGGGGUAUGGCUUCGACUUGCGUUCGACAUGAGGCCCGGAUCCGGC
modifications: 2'-NH2 all pyrimidines
- Kd [2]: 28 nM

B3: ligand 4 (class V) (ssRNA)
RNA: GGGAGCUCAGAAUAAACGCUCAACGGAUCGGGCGGUCGUCUAGCGGGAUGGCGUGCGGGUGGAUUCGACAUGAGGCCCGGAUCCGGC
modifications: 2'-NH2 all pyrimidines
- Kd [2]: 172 nM

B4: ligand 30 (class I; ligand 12 same SEQ ID) (ssRNA)
RNA: GGGAGCUCAGAAUAAACGCUCAAGAGUAGGCUUGACGCCUGGGGGGGUAUGGCUUCGACUGCGUUCGACAUGAGGCCCGGAUCCGGC
modifications: 2'-NH2 all pyrimidines
- binding result [3]: binds

B5: ligand 26 (class III) (ssRNA)
RNA: GGGAGCUCAGAAUAAACGCUCAACGCCUUAGUCGCCAUAAUGCUGUCGGGGUGGAUAGGGUGGUUCGACAUGAGGCCCGGAUCCGGC
modifications: 2'-NH2 all pyrimidines
- Kd [2]: 38 nM

B6: ligand 46 (class VI) (ssRNA)
RNA: GGGAGCUCAGAAUAAACGCUCAAUGGAUAGCGCUGCGUGACCGCGCUGGGGGGGUUGGCAGGGUUCGACAUGAGGCCCGGAUCCGGC
modifications: 2'-NH2 all pyrimidines
- Kd [2]: 13 nM

B7: ligand 3 (class VI) (ssRNA)
RNA: GGGAGCUCAGAAUAAACGCUCAAUGAGGUUGAGUAGUCGUGGUAAUGGCCACGGCUGGGGGGGUCGGUUCGACAUGAGGCCCGGAUCCGGC
modifications: 2'-NH2 all pyrimidines
- Kd [2]: 28 nM

B8: ligand 22 (class V) (ssRNA)
RNA: GGGAGCUCAGAAUAAACGCUCAAGGCCCUCUGAACCGUCUGGGCGUGGUUAGUGGGUGGCUUCGACAUGAGGCCCGGAUCCGGC
modifications: 2'-NH2 all pyrimidines
- Kd [2]: 24 nM

B9: ligand 9 (class III) (ssRNA)
RNA: GGGAGCUCAGAAUAAACGCUCAAGGAAUGAAUGUGAUGAACAGGUGUCGGGGUGGAUGGGUGGUUCGACAUGAGGCCCGGAUCCGGC
modifications: 2'-NH2 all pyrimidines
- Kd [4]: 500 nM

B10: DNA-17 (ssDNA)
DNA: TAGCGATACTGCGTGGGTTGGGGCGGGTAGGGCCAGCAGTCTCGTGCGGTACTTGAGCA
- binding result [5]: binds

B11: ligand 19 (class IV) (ssRNA)
RNA: GGGAGCUCAGAAUAAACGCUCAAUGCCCGGCAGUACUGCACGGCCUCGGGGGGGACCAGGGAGUUCGACAUGAGGCCCGGAUCCGGC
modifications: 2'-NH2 all pyrimidines
- Kd [2]: 8 nM

B12: ligand 19 3'-truncated (ssRNA)
RNA: GGGAGCUCAGAAUAAACGCUCAAUGCCCGGCAGUACUGCACGGCCUCGGGGGGGACCAGGGAG
modifications: 2'-NH2 all pyrimidines
- Kd [1]: 648 nM

B13: ligand 12 3'-truncated (ssRNA)
RNA: GGGAGCUCAGAAUAAACGCUCAAGAGUAGGCUUGACGCCUGGGGGGGUAUGGCUUCGACUGCG
modifications: 2'-NH2 all pyrimidines
- Kd [1]: 10 nM

B14: ligand 24 (class II) (ssRNA)
RNA: GGGAGCUCAGAAUAAACGCUCAAGGUAGACAUACGCCUUGGGGGGGUAUCAGGGUAUAUGGUAUUCGACAUGAGGCCCGGAUCCGGC
modifications: 2'-NH2 all pyrimidines
- Kd ([2]; G4 predicted): 11 nM
- Kd (Thrombin): 600 nM

B15: ligand 14 (class II) (ssRNA)
RNA: B14 RNA with U26C, A48U, U62C
modifications: 2'-NH2 all pyrimidines
- Kd [2]: 17 nM

B16: ligand 21 (class II; ligand 56 same SEQ ID) (ssRNA)
RNA: B14 RNA with A48G
modifications: 2'-NH2 all pyrimidines
- Kd [6]: 192 nM
- Kd ([2]; G4 predicted): 39 nM

B17: ligand 28 (class IV) (ssRNA)
RNA: GGGAGCUCAGAAUAAACGCUCAAAUCGGAUAGCGCCGCGAUGGCGUCUGGGGGGGACCAGGGAUUCGACAUGAGGCCCGGAUCCGGC
modifications: 2'-NH2 all pyrimidines
- Kd [2]: 57 nM

B18: ligand 14 3'-truncated (ssRNA)
RNA: GGGAGCUCAGAAUAAACGCUCAAGGCAGACAUACGCCUUGGGGGGGUUUCAGGGUAUAUGGCA
modifications: 2'-NH2 all pyrimidines
- Kd [7]: 14.5 nM
